# From patent US9580469B2, “Peptides for the treatment and early diagnosis of Alzheimer's disease and other tauopathies” (priority 2012, dated 2017)
# Where no end group is shown, it is not given here. [ ]: non-standard residue; d: D form.
# Legend:
# Type in all cases: biochemical
# [1] = biological target: T1, tau full-length protein (Homo sapiens, UniProt P10636); assay: Dynamic light scattering (DLS) measurements of tau aggregation with arachidonic acid; conditions: for Mass Day 1 / Mass Day 8 / Particle size Day 1 / Particle size Day 8: DLS, 1 μg/ml tau full-length protein, 100 μM arachidonic acid (AA), peptide at ratio 1:10; for Effect on aggregation of tau in DLS (in words): tau full-length protein, 100 μM arachidonic acid, peptide ratio 1:10
# T1 construct: Since this is not possible for the full-length tau protein (441 amino acids)
# Procedure: For this purpose. 1 μg/ml tau full-length protein was analyzed using 100 μM arachidonic acid and the respective peptide at a ratio of 1:10. Tau without peptide and without the addition of arachidonic acid was measured for control purposes. […] DLS was carried out with an acquisition time of 5 seconds for 3 minutes at room temperature.
# [2] = biological target: tau fibrils (Homo sapiens, UniProt P10636); assay: Effect of peptides on existing tau fibrils
# [3] = biological target: PHF-6 (Homo sapiens, UniProt P10636); assay: ThT aggregation assay of PHF-6 (relative fibril content); conditions: 25 μM PHF-6, PHF-6:peptide 1:1 and 1:10, two hours of incubation
# Procedure: (§1) In mirror image phage display selections, the selection rounds are carried out against a D-enantiomer as the target, which must be generated synthetically. Since this is not possible for the full-length tau protein (441 amino acids), the selections were carried out against the D-enantiomer of a 6-mer tau fragment (PHF-6), which can be found in tau repeats R2 and R3 and, according to various studies, forms the core of the neurofibrillary tangles (von Bergen, M., Assembly of τ protein into Alzheimer paired helical filaments depends on a local sequence motif (306VQIVYK311) forming β structure PNAS, 1999. 97(10): p. 5129-5134; Miller, M., Synergistic Interactions between Repeats in Tau Protein and Aβ Amyloids May Be Responsible for Accelerated Aggregation via Polymorphic States. 5172-5181, 2011. 50(23): p. 5172-5181). […]
# The concentration of PHF-6 was 25 μM; the peptides were measured at a ratio of 1:1 and 1:10 (PHF-6:peptide) and as controls individually in a 25 μM concentration (not shown). The fluorescence of 25 μM PHF-6 after two hours of incubation was set at 100%, and the values and standard deviations of the remaining incubations are indicated as percentages of this maximal value.
# [4] = biological target: full-length tau protein (Homo sapiens, UniProt P10636); assay: ThT aggregation assay of tau with 100 μM arachidonic acid (relative fibril content); conditions: 5 μM tau, tau:peptide 1:1 and 1:10, 24 hours
# Procedure: as §1, with “5172-5181). Since aggregated material is to serve as the target for the selection, and monomeric tau protein has important physiological functions and must not be inhibited in vivo, only fribriilary material was used for the selection.” for “5172-5181).”
# The concentration of tau was 5 μM; the peptides were added at a ratio of 1:1 and 1:10 (tau:peptide). The fluorescence of 5 μM tau after 24 hours of incubation was set at 100%, and the values and standard deviations of the remaining incubations are indicated as percentages of this maximal value.
# Sequence of tau fibrils (P10636 1-441 isoform P10636-8): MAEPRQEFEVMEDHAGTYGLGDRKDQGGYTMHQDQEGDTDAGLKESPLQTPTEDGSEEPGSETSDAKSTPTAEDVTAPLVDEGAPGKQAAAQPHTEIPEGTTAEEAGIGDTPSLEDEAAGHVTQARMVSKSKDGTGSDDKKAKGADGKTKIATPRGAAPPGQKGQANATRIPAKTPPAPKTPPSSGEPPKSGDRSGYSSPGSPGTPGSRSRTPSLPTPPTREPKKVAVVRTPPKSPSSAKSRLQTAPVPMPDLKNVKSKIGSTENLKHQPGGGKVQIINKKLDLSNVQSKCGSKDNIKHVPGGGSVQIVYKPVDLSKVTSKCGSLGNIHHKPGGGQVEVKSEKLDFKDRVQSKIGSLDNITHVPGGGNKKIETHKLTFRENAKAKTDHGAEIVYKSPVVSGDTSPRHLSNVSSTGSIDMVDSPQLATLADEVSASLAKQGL
# T1 sequence (P10636 1-441 isoform P10636-8): as above
# Sequence of full-length tau protein (P10636 1-441 isoform P10636-8): as above
Mass Day 1 [1],Mass Day 8 [1],Substance,Particle size Day 1 [1],Particle size Day 8 [1],Effect on existing tau fibrils [2],Effect on aggregation of tau in DLS (in words) [1],Inhibition of aggregation / fibril formation of PHF-6 [3],Inhibition of fibrillization / aggregation of the full-length tau protein [4],Inhibition of fibrillization / aggregation of the full-length tau protein ([4]; listed as peptide selected by Sievers)
≧99%,100%,"TTSLQMRLYYPP (not fully specified (some residues)) [TL28, label not defined in the text]",–,–,–,–,–,–,–
≧99%,≧98%,aptilrlhslga,1-fold,1-fold,dissolve existing tau fibrils,–,–,–,–
≧99%,≧99%,kntpqhrklrls ([dK][dN][dT][dP][dQ][dH][dR][dK][dL][dR][dL][dS]) [D-peptide from selections against D-PHF-6],1-fold,1-fold,dissolve existing tau fibrils,–,–,–,–
100%,≧98%,"tlkivw ([dT][dL][dK][dI][dV][dW]) [Sievers, reference compound]",–,–,–,showed no effect on the aggregation of the full-length tau protein,inhibited the aggregation of PHF-6 to a similar degree as that of the peptides we developed,not the aggregation of the full-length tau protein,in most approaches showed no effect at all

Substance,Mass Day 1 [1],Mass Day 8 [1],Particle size Day 1 [1],Particle size Day 8 [1],Effect on existing tau fibrils [2],Effect on aggregation of tau in DLS (in words) [1],Inhibition of aggregation / fibril formation of PHF-6 [3],Inhibition of fibrillization / aggregation of the full-length tau protein [4],Inhibition of fibrillization / aggregation of the full-length tau protein ([4]; listed as peptide selected by Sievers)
"ppyylxmqlstt ([dP][dP][dY][dY][dL][dR][dM][dQ][dL][dS][dT][dT]) [TD28ri, retro-inverso peptide of …]",100%,100%,55-fold,44-fold,convert tau fibrils into large amorphous aggregates,formation of very large aggregates,–,–,–
ttslqmrlyypp ([dT][dT][dS][dL][dQ][dM][dR][dL][dY][dY][dP][dP]) [TD28],100%,100%,42-fold,48-fold,convert tau fibrils into large amorphous aggregates,formation of very large aggregates,–,–,–
